Among the data in patent publication US20240197902A1 (published 2024) are Kd values, retold here.

First the molecules themselves.
B1: Activin A (ligand)
chain: GLECDGKVNICCKKQFFVSFKDIGWNDWIIAPSGYHANYCEGECPSHIAGTSGSSLSFHSTVINHYRMRGHSPFANLKSCCVPTKLRPMSMLYYDDGQNIIKKDIQNMIVEECGCS
B2: BMP10 (ligand)
chain: NAKGNYCKRTPLYIDFKEIGWDSWIIAPPGYEAYECRGVCNYPLAEHLTPTKHAIIQALVHLKNSQKASKACCVPTKLEPISILYLDKGVVTYKFKYEGMAVSECGCR
B3: GDF11 (ligand)
chain: NLGLDCDEHSSESRCCRYPLTVDFEAFGWDWIIAPKRYKANYCSGQCEYMFMQKYPHTHLVQQANPRGSAGPCCTPTKMSPINMLYFNDKQQIIYGKIPGMVVDRCGCS
B4: BMP9 (ligand)
chain: SAGAGSHCQKTSLRVNFEDIGWDSWIIAPKEYEAYECKGGCFFPLADDVTPTKHAIVQTLVHLKFPTKVGKACCVPTKLSPISVLYKDDMGVPTLKYHYEGMSVAECGCR
B5: Activin B (ligand)
chain: GLECDGRTNLCCRQQFFIDFRLIGWNDWIIAPTGYYGNYCEGSCPAYLAGVPGSASSFHTAVVNQYRMRGLNPGTVNSCCIPTKLSTMSMLYFDDEYNIVKRDVPNMIVEECGCA

For the first test, the target named is N35E. The test is described as follows: SPR; 25 C. A general note: Surface plasmon resonance follows binding to a sensor surface in real time, without labels.
The Kd is the constant that tells how readily two partners part at equilibrium. B1 showed a dissociation constant (Kd) of 0.8 nM.

As for B2, the Kd is 0.28 nM.

In the case of B3, the affinity, expressed as Kd, was 0.028 nM.

The target in another test is L38Q. The test is described as follows: SPR; 25 C.
In turn, B1 registered a Kd of 0.2 nM.

B2 had a dissociation constant (Kd) of 0.089 nM.

For the molecule B4, the Kd turned out to be 0.033 nM.

B3: the Kd came to 0.021 nM.

A further test deals with ActRIIB-G1Fc. The test is described as follows: SPR; 25 C.
Consider B1, for which the Kd turned out to be 0.25 nM.

As to B2, the Kd was 0.169 nM.

B4 returned a Kd of 0.059 nM.

Turning to B3, the affinity, expressed as Kd, was 0.011 nM.

The target of a further test is Q98L. The test is described as follows: SPR; 25 C.
B1: the dissociation constant Kd came to 0.22 nM.

For the molecule B2, the affinity, expressed as Kd, was 0.065 nM.

B4 came in with a dissociation constant Kd of 0.071 nM.

Consider B3, for which the Kd turned out to be 0.043 nM.

In the next test the target is F82T. The test is described as follows: SPR; 25 C.
Consider B2, for which the Kd worked out at 0.14 nM.

In turn, B4 showed a Kd of 0.082 nM.

B3 had a Kd of 0.018 nM.

The target of the next test is N35Q. The test is described as follows: SPR; 25 C.
The molecule B1 yielded a dissociation constant (Kd) of 0.32 nM.

Regarding B2, the Kd turned out to be 0.27 nM.

Take B3: binding was characterised by a dissociation constant (Kd) of 0.02 nM.

The next test concerns the target Q98I. The experiment in a line: SPR; 25 C.
Consider B1, for which the Kd came to 0.157 nM.

The molecule B2 had a Kd of 0.21 nM.

As to B4, the Kd worked out at 0.059 nM.

B3 showed a Kd of 0.049 nM.

For another test, the target named is L38R. The test is described as follows: SPR; 25 C.
The molecule B1 gave a Kd of 0.23 nM.

Turning to B2, the Kd worked out at 0.11 nM.

Consider B4, for which binding was characterised by a dissociation constant (Kd) of 0.05 nM.

In turn, B3 showed a Kd of 0.007 nM.

In a further test the target is Q98R. The test is described as follows: SPR; 25 C.
Molecule B1 registered a Kd of 0.3 nM.

Molecule B2 displayed a dissociation constant Kd of 0.32 nM.

As to B4, the Kd was 0.074 nM.

B3 yielded a dissociation constant (Kd) of 0.02 nM.

The target in the next test is L38D. The experiment in a line: SPR; 25 C.
In the case of B1, the Kd is 0.23 nM.

In turn, B2 registered a Kd of 0.15 nM.

B4 displayed a Kd of 0.063 nM.

B3: binding was characterised by a dissociation constant (Kd) of 0.03 nM.

In another test the target is Q98V. The experiment in a line: SPR; 25 C.
B1 returned a Kd of 0.16 nM.

B2 returned a dissociation constant Kd of 0.048 nM.

B4: binding was put at a Kd of 0.047 nM.

On to B3, for which the dissociation constant (Kd) came to 0.033 nM.

The next test concerns the target Q98K. The test is described as follows: SPR; 25 C.
B1 had an equilibrium dissociation constant (Kd) of 0.145 nM.

B2: binding was characterised by a dissociation constant (Kd) of 0.068 nM.

The molecule B4 displayed a Kd of 0.069 nM.

In turn, B3 displayed an equilibrium dissociation constant (Kd) of 0.037 nM.

The next test addresses L79W. The test is described as follows: SPR; 25 C.
Take B1: binding was characterised by a dissociation constant (Kd) of 0.26 nM.

Molecule B2 had an equilibrium dissociation constant (Kd) of 0.16 nM.

Turning to B4, the Kd is 0.11 nM.

B3 showed a dissociation constant (Kd) of 0.044 nM.

Another test concerns the target Q98A. The test is described as follows: SPR; 25 C.
The molecule B1 yielded a Kd of 0.155 nM.

Turning to B2, the Kd was found to be 0.21 nM.

Consider B4, for which the affinity, expressed as Kd, was 0.043 nM.

B3: binding was characterised by a dissociation constant (Kd) of 0.037 nM.

The target of another test is N35F. The experiment in a line: SPR; 25 C.
In turn, B1 returned a dissociation constant (Kd) of 0.29 nM.

B2 showed a dissociation constant Kd of 0.22 nM.

For B3, the dissociation constant Kd worked out at 0.017 nM.

A further test concerns the target ActRIIB L38N/L79R. The experiment in a line: SPR; 37 C.
In turn, B1 gave a Kd of 0.339 nM.

B5: binding was characterised by a dissociation constant (Kd) of 0.0369 nM.

The target of another test is ActRIIB F82T. The experiment in a line: SPR; 37 C.
Molecule B1 registered an equilibrium dissociation constant (Kd) of 0.0109 nM.

On to B5, for which the Kd was determined as 0.012 nM.

The target of a further test is ActRIIB-G1Fc. The experiment in a line: SPR; 37 C.
Molecule B1 displayed a Kd of 0.0146 nM.

In the case of B5, the dissociation constant (Kd) came out at 0.0085 nM.

The next test concerns the target ActRIIB E50L. The experiment in a line: SPR; 37 C.
In turn, B1 yielded a Kd of 0.0456 nM.

Molecule B5 showed an equilibrium dissociation constant (Kd) of 0.159 nM.

In another test the target is ActRIIB V99G. The experiment in a line: SPR; 37 C.
In the case of B5, the equilibrium dissociation constant (Kd) was found to be 0.847 nM.

In a further test the target is ActRIIB F82T. The test is described as follows: SPR; 37 C; transient.
Turning to B4, binding was characterised by a dissociation constant (Kd) of 6.17 nM.

The next test addresses L79K. The experiment in a line: SPR; 37 C.
In turn, B1 gave a Kd of 0.13 nM.

B2 gave an equilibrium dissociation constant (Kd) of 1.4 nM.

In turn, B4 gave a dissociation constant (Kd) of 1.1 nM.

For B3, the dissociation constant Kd is 0.14 nM.

The target in the next test is K55E. The test is described as follows: SPR; 37 C.
B1 returned a Kd of 0.064 nM.

For B2, the dissociation constant Kd came out at 0.014 nM.

For B4, the dissociation constant (Kd) amounted to 0.27 nM.

B3: the Kd is 0.052 nM.

The next test addresses K74A. The experiment in a line: SPR; 37 C.
Molecule B1 registered a Kd of 0.034 nM.

B2 had a dissociation constant Kd of 0.033 nM.

Turning to B4, the Kd came out at 0.36 nM.

Molecule B3 gave an equilibrium dissociation constant (Kd) of 0.43 nM.

The target of the next test is ActRIIB-G1Fc. The test is described as follows: SPR; 37 C. The source holds these as a separate data set.
Regarding B1, the Kd was 0.047 nM.

The molecule B4 registered a dissociation constant Kd of 0.037 nM.

B3 registered a Kd of 0.012 nM.

A further test deals with L79K/F82K. The test is described as follows: SPR; 37 C.
B1 yielded a Kd of 0.64 nM.

The molecule B2 came in with a dissociation constant (Kd) of 0.068 nM.

B3 gave a Kd of 1.6 nM.

The target in another test is F82K. The experiment in a line: SPR; 37 C.
The molecule B1 returned an equilibrium dissociation constant (Kd) of 0.093 nM.

B2 gave a dissociation constant (Kd) of 0.008 nM.

In the case of B3, the Kd is 0.057 nM.

The target in a further test is F82I. The test is described as follows: SPR; 37 C.
For B1, the equilibrium dissociation constant (Kd) was found to be 0.078 nM.

In the case of B2, the affinity, expressed as Kd, was 0.008 nM.

On to B4, for which the Kd is 0.275 nM.

Turning to B3, the affinity, expressed as Kd, was 0.01 nM.

The target of another test is K55A/F82I. The test is described as follows: SPR; 37 C.
In turn, B1 registered a Kd of 0.047 nM.

B2 returned an equilibrium dissociation constant (Kd) of 0.007 nM.

Molecule B4 returned a Kd of 0.134 nM.

Molecule B3 returned a Kd of 0.09 nM.

The target of a further test is K55A. The test is described as follows: SPR; 37 C.
As for B1, the dissociation constant (Kd) was found to be 0.046 nM.

With B2, the Kd turned out to be 0.023 nM.

In turn, B4 returned a Kd of 0.142 nM.

In turn, B3 returned a Kd of 0.026 nM.

In the next test the target is ActRIIB L38N/L79R. The experiment in a line: SPR; 37 C. This is another data set of the same source.
Take B2: the Kd was determined as 0.293 nM.

Take B4: the affinity, expressed as Kd, was 2.13 nM.

As to B3, the dissociation constant (Kd) was determined as 0.0886 nM.

The target of another test is ActRIIB F82T. The experiment in a line: SPR; 37 C. The source holds these as a separate data set.
As for B2, the affinity, expressed as Kd, was 0.0092 nM.

B3 yielded a Kd of 0.0267 nM.

Another test has as its target ActRIIB-G1Fc. The test is described as follows: SPR; 37 C. The source holds these as a separate data set.
In turn, B2 came in with a dissociation constant Kd of 0.0409 nM.

Molecule B4 had a Kd of 0.0911 nM.

For the molecule B3, the affinity, expressed as Kd, was 0.01 nM.

In the next test the target is ActRIIB E50L. The test is described as follows: SPR; 37 C. This is another data set of the same source.
Molecule B2 returned a dissociation constant (Kd) of 0.163 nM.

B4 returned a Kd of 0.103 nM.

Turning to B3, the Kd amounted to 0.187 nM.

Another test concerns the target ActRIIB V99G. The test is described as follows: SPR; 37 C. The source holds these as a separate data set.
Molecule B2 showed a dissociation constant (Kd) of 0.951 nM.

In turn, B3 had a dissociation constant (Kd) of 0.184 nM.
